In this series the target is cardiac troponin T (TnT) (human, UniProt P45379 2-298). Put plainly: electrochemical aptasensor (DPV, ferro/ferricyanide); 0.05-5 ng/mL TnT; LOD 0.01 ng/mL; aptamer on gold; TnT binding at 37 C, ~30 min, working pH 7.4; aptamer immobilized from 10 mM phosphate, 5 mM NaCl, 2 mM KCl, 1 mM MgCl2, pH 7.4; DPV in 20 mM Tris-HCl, 0.5 M KCl, 0.5 M ferro/ferricyanide. To be noted: protein: commercial.

CGTGCAGTACGCCAACCTTTCTCATGCGCTGCCCCTCTTA (structured_DNA, 5'-SH-(CH2)6 thiol) [TnT aptamer]: the binding result is on record as “binds”.
